Source: paper PMC9482650, “Quantitative fragmentomics allow affinity mapping of interactomes” (Nature Communications, 2022)

Assays:
Experiment in all cases: holdup assay
Design in all cases: key: below the threshold = too weak to quantify, mostly under pKd 3.1 to 4
LNX1_1, Q8TBB1 = molecular target: LNX1_1, Q8TBB1
DLG4_3, P78352 = molecular target: DLG4_3, P78352
SNTG1, Q9NSN8 = molecular target: T1, SNTG1, Q9NSN8
T1 sequence (Q9NSN8 52-150, limits assumed, looked up): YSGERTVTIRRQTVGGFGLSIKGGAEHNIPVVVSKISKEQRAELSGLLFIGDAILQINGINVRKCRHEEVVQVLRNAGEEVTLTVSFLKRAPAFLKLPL

AHNAK1, Q09666 = molecular target: AHNAK1, Q09666
Inadl_10, Q8NI35 = molecular target: Inadl_10, Q8NI35
NHERF4_4, Q86UT5 = molecular target: NHERF4_4, Q86UT5
HTRA4, P83105 = molecular target: T2, HTRA4, P83105
T2 sequence (P83105 378-476, limits assumed, looked up): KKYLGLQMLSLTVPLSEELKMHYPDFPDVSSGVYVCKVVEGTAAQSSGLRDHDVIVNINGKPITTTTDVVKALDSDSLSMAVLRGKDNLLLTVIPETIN

NHERF3_4, Q5T2W1 = molecular target: T3, NHERF3_4, Q5T2W1
T3 sequence (Q5T2W1 373-468, limits assumed, looked up): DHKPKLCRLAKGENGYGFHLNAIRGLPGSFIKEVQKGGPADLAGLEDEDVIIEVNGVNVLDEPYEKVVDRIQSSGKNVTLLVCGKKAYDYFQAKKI

LDB3, O75112 = molecular target: LDB3, O75112
LNX1_3, Q8TBB1 = molecular target: LNX1_3, Q8TBB1
GRIP1_5, Q9Y3R0 = molecular target: T4, GRIP1_5, Q9Y3R0
T4 sequence (Q9Y3R0 568-668, limits assumed, looked up): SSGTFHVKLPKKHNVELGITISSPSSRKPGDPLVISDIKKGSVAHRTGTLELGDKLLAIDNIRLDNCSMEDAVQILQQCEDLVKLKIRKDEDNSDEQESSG

GRID2IP_2, A4D2P6 = molecular target: GRID2IP_2, A4D2P6
MAGI3_2, Q5TCQ9 = molecular target: MAGI3_2, Q5TCQ9
MAST2, Q6P0Q8 = molecular target: MAST2, Q6P0Q8
SHANK1, Q9Y566 = molecular target: T5, SHANK1, Q9Y566
T5 sequence (Q9Y566 658-767, limits assumed, looked up): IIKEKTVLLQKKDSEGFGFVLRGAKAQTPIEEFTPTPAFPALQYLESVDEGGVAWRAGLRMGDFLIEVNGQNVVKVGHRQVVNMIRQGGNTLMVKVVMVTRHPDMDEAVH

MPP6, Q9NZW5 = molecular target: T6, MPP6, Q9NZW5
T6 sequence (Q9NZW5 125-219, limits assumed, looked up): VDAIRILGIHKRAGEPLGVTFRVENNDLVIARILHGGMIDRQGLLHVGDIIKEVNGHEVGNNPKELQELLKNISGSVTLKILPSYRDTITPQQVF

SNX27, Q96L92 = molecular target: SNX27, Q96L92
APBA1_1, Q02410 = molecular target: T7, APBA1_1, Q02410
T7 sequence (Q02410 651-752, limits assumed, looked up): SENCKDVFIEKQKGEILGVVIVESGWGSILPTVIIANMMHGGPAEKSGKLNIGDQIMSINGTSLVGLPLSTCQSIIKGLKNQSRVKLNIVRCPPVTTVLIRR

GRIP2_5, Q9C0E4 = molecular target: GRIP2_5, Q9C0E4
LNX1_2, Q8TBB1 = molecular target: LNX1_2, Q8TBB1
NHERF3_3, Q5T2W1 = molecular target: T8, NHERF3_3, Q5T2W1
T8 sequence (Q5T2W1 238-333, limits assumed, looked up): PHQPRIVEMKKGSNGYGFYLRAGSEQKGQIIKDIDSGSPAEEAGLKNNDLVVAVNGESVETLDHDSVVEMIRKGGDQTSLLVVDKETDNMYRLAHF

MAGI2_3, Q86UL8 = molecular target: MAGI2_3, Q86UL8
GRID2IP_1, A4D2P6 = molecular target: GRID2IP_1, A4D2P6
NHERF3_1, Q5T2W1 = molecular target: T9, NHERF3_1, Q5T2W1
T9 sequence (Q5T2W1 4-100, limits assumed, looked up): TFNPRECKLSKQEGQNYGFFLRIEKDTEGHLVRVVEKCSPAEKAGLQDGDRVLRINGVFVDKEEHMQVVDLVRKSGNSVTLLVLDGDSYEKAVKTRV

IL16_4, Q14005 = molecular target: IL16_4, Q14005
RHPN1, Q8TCX5 = molecular target: T10, RHPN1, Q8TCX5
T10 sequence (Q8TCX5 508-602, limits assumed, looked up): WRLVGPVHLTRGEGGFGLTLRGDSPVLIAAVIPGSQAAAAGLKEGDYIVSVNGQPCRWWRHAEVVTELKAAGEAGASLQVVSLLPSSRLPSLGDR

HTRA3, P83110 = molecular target: T11, HTRA3, P83110
T11 sequence (P83110 354-453, limits assumed, looked up): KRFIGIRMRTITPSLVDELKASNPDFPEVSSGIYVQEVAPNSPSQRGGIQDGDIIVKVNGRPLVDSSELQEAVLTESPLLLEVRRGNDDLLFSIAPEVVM

[1] = plain residues with an end cap or a label only (N-terminal biotin on a linker: ahx)
[2] = plain residues with an end cap or a label only (N-terminal biotin on a linker: ado-ado)
[3] = plain residues with an end cap or a label only (N-terminal biotin on a linker: ttds)

Sequence of GRIP2_5, Q9C0E4 (Q9C0E4 544-642): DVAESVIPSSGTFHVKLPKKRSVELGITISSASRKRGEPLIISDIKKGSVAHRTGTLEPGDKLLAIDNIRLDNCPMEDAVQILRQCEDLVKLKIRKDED
Sequence of MAGI2_3, Q86UL8 (Q86UL8 600-682): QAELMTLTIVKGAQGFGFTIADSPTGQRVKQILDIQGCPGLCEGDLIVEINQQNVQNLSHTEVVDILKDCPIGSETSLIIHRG
Sequence of LDB3, O75112 (O75112 1-94): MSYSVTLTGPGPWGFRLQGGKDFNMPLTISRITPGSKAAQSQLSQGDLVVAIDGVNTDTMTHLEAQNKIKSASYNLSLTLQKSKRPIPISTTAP
Sequence of IL16_4, Q14005 (Q14005 1229-1329): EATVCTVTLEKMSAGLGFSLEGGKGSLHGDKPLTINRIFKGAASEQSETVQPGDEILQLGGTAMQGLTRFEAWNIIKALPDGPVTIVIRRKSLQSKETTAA
Sequence of AHNAK1, Q09666 (Q09666 4-100): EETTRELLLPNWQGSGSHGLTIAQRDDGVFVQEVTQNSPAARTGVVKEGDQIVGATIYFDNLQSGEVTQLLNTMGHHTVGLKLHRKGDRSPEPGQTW
Sequence of GRID2IP_1, A4D2P6 (A4D2P6 1-87): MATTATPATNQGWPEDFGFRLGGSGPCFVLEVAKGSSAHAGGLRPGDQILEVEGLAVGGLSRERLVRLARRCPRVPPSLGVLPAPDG
Sequence of GRID2IP_2, A4D2P6 (A4D2P6 272-370): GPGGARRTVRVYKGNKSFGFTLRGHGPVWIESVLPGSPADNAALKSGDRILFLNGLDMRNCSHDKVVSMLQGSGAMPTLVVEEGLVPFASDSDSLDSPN
Sequence of Inadl_10, Q8NI35 (Q8NI35 1673-1763): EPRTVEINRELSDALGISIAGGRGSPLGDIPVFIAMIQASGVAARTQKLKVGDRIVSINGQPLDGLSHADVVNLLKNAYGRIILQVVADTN
Sequence of MAGI3_2, Q5TCQ9 (Q5TCQ9 398-503): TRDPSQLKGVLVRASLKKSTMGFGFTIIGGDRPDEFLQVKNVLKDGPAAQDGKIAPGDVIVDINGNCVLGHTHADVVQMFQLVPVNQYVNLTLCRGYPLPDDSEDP
Sequence of NHERF4_4, Q86UT5 (Q86UT5 464-550): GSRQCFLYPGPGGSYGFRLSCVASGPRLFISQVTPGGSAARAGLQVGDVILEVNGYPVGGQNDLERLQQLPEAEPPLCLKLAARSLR
Sequence of LNX1_3, Q8TBB1 (Q8TBB1 500-596): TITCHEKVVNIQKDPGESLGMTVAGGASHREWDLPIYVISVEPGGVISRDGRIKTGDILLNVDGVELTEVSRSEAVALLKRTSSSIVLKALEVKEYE
Sequence of MAST2, Q6P0Q8 (Q6P0Q8 1099-1202): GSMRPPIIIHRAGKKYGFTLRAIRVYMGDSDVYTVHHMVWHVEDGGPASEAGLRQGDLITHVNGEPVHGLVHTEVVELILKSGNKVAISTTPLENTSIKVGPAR
Sequence of LNX1_1, Q8TBB1 (Q8TBB1 261-371): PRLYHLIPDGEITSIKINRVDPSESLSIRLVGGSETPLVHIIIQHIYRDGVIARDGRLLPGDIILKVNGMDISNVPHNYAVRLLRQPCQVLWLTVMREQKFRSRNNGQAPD
Sequence of DLG4_3, P78352 (P78352 306-403): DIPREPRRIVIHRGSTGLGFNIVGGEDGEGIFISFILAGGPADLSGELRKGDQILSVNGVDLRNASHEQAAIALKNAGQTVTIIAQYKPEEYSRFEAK
Sequence of LNX1_2, Q8TBB1 (Q8TBB1 371-470): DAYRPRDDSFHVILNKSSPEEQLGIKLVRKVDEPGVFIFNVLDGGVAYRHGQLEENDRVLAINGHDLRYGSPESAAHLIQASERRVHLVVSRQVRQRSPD

B1: MTMR1, Q13613 (peptide)
chain: HSATSVHTSV
pKd (LNX1_1, Q8TBB1; [1]): below the threshold
pKd (DLG4_3, P78352; [1]): below the threshold
pKd (SNTG1, Q9NSN8; [1]): below the threshold
pKd (AHNAK1, Q09666; [1]): below the threshold
pKd (Inadl_10, Q8NI35; [1]): 3.62
pKd (NHERF4_4, Q86UT5; [1]): below the threshold
pKd (HTRA4, P83105; [1]): below the threshold
pKd (NHERF3_4, Q5T2W1; [1]): below the threshold
pKd (LDB3, O75112; [1]): below the threshold
pKd (LNX1_3, Q8TBB1; [1]): below the threshold
pKd (GRIP1_5, Q9Y3R0; [1]): below the threshold
pKd (GRID2IP_2, A4D2P6; [1]): below the threshold
pKd (MAGI3_2, Q5TCQ9; [1]): 3.59
pKd (MAST2, Q6P0Q8; [1]): 4.38
pKd (SHANK1, Q9Y566; [1]): below the threshold
pKd (MPP6, Q9NZW5; [1]): below the threshold
pKd (SNX27, Q96L92; [1]): 3.96
pKd (APBA1_1, Q02410; [1]): below the threshold
pKd (GRIP2_5, Q9C0E4; [1]): below the threshold
pKd (LNX1_2, Q8TBB1; [1]): below the threshold
pKd (NHERF3_3, Q5T2W1; [1]): below the threshold
pKd (MAGI2_3, Q86UL8; [1]): below the threshold
pKd (GRID2IP_1, A4D2P6; [1]): below the threshold
pKd (NHERF3_1, Q5T2W1; [1]): below the threshold
pKd (IL16_4, Q14005; [1]): below the threshold
pKd (RHPN1, Q8TCX5; [1]): 4.09
pKd (HTRA3, P83110; [1]): below the threshold

B2: CBY2, Q8NA61 (peptide)
chain: SQDPKKPSRV
pKd (LNX1_1, Q8TBB1; [2]): 3.5
pKd (DLG4_3, P78352; [2]): below the threshold
pKd (SNTG1, Q9NSN8; [2]): below the threshold
pKd (AHNAK1, Q09666; [2]): below the threshold
pKd (Inadl_10, Q8NI35; [2]): below the threshold
pKd (NHERF4_4, Q86UT5; [2]): 3.67
pKd (HTRA4, P83105; [2]): 3.9
pKd (NHERF3_4, Q5T2W1; [2]): below the threshold
pKd (LDB3, O75112; [2]): below the threshold
pKd (LNX1_3, Q8TBB1; [2]): below the threshold
pKd (GRIP1_5, Q9Y3R0; [2]): below the threshold
pKd (GRID2IP_2, A4D2P6; [2]): below the threshold
pKd (MAGI3_2, Q5TCQ9; [2]): 4.44
pKd (MAST2, Q6P0Q8; [2]): below the threshold
pKd (SHANK1, Q9Y566; [2]): below the threshold
pKd (MPP6, Q9NZW5; [2]): 3.89
pKd (SNX27, Q96L92; [2]): 3.67
pKd (APBA1_1, Q02410; [2]): below the threshold
pKd (GRIP2_5, Q9C0E4; [2]): below the threshold
pKd (LNX1_2, Q8TBB1; [2]): below the threshold
pKd (NHERF3_3, Q5T2W1; [2]): below the threshold
pKd (MAGI2_3, Q86UL8; [2]): below the threshold
pKd (GRID2IP_1, A4D2P6; [2]): below the threshold
pKd (NHERF3_1, Q5T2W1; [2]): below the threshold
pKd (IL16_4, Q14005; [2]): below the threshold
pKd (RHPN1, Q8TCX5; [2]): below the threshold
pKd (HTRA3, P83110; [2]): below the threshold

B3: DGKI, O75912 (peptide)
chain: IGHEDLETAV
pKd (LNX1_1, Q8TBB1; [2]): 3.58
pKd (DLG4_3, P78352; [2]): below the threshold
pKd (SNTG1, Q9NSN8; [2]): 5.43
pKd (AHNAK1, Q09666; [2]): below the threshold
pKd (Inadl_10, Q8NI35; [2]): below the threshold
pKd (NHERF4_4, Q86UT5; [2]): below the threshold
pKd (HTRA4, P83105; [2]): below the threshold
pKd (NHERF3_4, Q5T2W1; [2]): below the threshold
pKd (LDB3, O75112; [2]): below the threshold
pKd (LNX1_3, Q8TBB1; [2]): below the threshold
pKd (GRIP1_5, Q9Y3R0; [2]): below the threshold
pKd (GRID2IP_2, A4D2P6; [2]): 3.79
pKd (MAGI3_2, Q5TCQ9; [2]): 4.56
pKd (MAST2, Q6P0Q8; [2]): 5.47
pKd (SHANK1, Q9Y566; [2]): 4.41
pKd (MPP6, Q9NZW5; [2]): below the threshold
pKd (SNX27, Q96L92; [2]): 5.73
pKd (APBA1_1, Q02410; [2]): below the threshold
pKd (GRIP2_5, Q9C0E4; [2]): below the threshold
pKd (LNX1_2, Q8TBB1; [2]): below the threshold
pKd (NHERF3_3, Q5T2W1; [2]): below the threshold
pKd (MAGI2_3, Q86UL8; [2]): 4.61
pKd (GRID2IP_1, A4D2P6; [2]): below the threshold
pKd (NHERF3_1, Q5T2W1; [2]): 4.75
pKd (IL16_4, Q14005; [2]): 3.52
pKd (RHPN1, Q8TCX5; [2]): 4.77
pKd (HTRA3, P83110; [2]): below the threshold

B4: PODXL, O00592 (peptide)
chain: DLDEEEDTHL
pKd (LNX1_1, Q8TBB1; [3]): below the threshold
pKd (DLG4_3, P78352; [3]): below the threshold
pKd (SNTG1, Q9NSN8; [3]): 3.49
pKd (AHNAK1, Q09666; [3]): below the threshold
pKd (Inadl_10, Q8NI35; [3]): below the threshold
pKd (NHERF4_4, Q86UT5; [3]): below the threshold
pKd (HTRA4, P83105; [3]): below the threshold
pKd (NHERF3_4, Q5T2W1; [3]): below the threshold
pKd (LDB3, O75112; [3]): 3.49
pKd (LNX1_3, Q8TBB1; [3]): below the threshold
pKd (GRIP1_5, Q9Y3R0; [3]): below the threshold
pKd (GRID2IP_2, A4D2P6; [3]): below the threshold
pKd (MAGI3_2, Q5TCQ9; [3]): below the threshold
pKd (MAST2, Q6P0Q8; [3]): 5.31
pKd (SHANK1, Q9Y566; [3]): 4.95
pKd (MPP6, Q9NZW5; [3]): below the threshold
pKd (SNX27, Q96L92; [3]): 5.15
pKd (APBA1_1, Q02410; [3]): below the threshold
pKd (GRIP2_5, Q9C0E4; [3]): below the threshold
pKd (LNX1_2, Q8TBB1; [3]): below the threshold
pKd (NHERF3_3, Q5T2W1; [3]): below the threshold
pKd (MAGI2_3, Q86UL8; [3]): below the threshold
pKd (GRID2IP_1, A4D2P6; [3]): below the threshold
pKd (NHERF3_1, Q5T2W1; [3]): 4.5
pKd (IL16_4, Q14005; [3]): below the threshold
pKd (RHPN1, Q8TCX5; [3]): 4.1
pKd (HTRA3, P83110; [3]): below the threshold
